Reference: patent US20200055939A1 (Genentech, published 2020)
Substitutions are numbered along the chain they refer to.

T1: huMICB*005 alpha 3-his (human)
T1 construct: whole construct entry: GS, alpha 3 domain, GNS, His8; also called MICB005.His; MICB*005 alpha3 construct
T1 chain: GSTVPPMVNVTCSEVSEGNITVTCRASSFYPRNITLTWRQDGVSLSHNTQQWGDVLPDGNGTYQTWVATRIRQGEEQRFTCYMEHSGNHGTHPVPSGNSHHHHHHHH

T2: huMICA*002 alpha 3-his (human)
T2 construct: whole construct entry: GS, alpha 3 domain, GNS, His8; also called MICA002.His; MICA*002 alpha3 construct
T2 chain: T1 chain with C12R, V15A, S28G, R32W, T37S, N48D, R72C, G90S

T3: huMICA*008 alpha 3-his (human)
T3 construct: whole construct entry: GS, alpha 3 domain (Thr204-Ser297), GNS, His8; also the construct of the FPOP experiment; also called MICA008.His; MICA*008 alpha3 construct
T3 chain: T1 chain with C12R, V15A, T35I, N48D, R72C, Q73R, G90S

T4: huMICA*004 alpha 3-his (human)
T4 construct: whole construct entry: GS, alpha 3 domain, GNS, His8; also called MICA004.His; MICA*004 alpha3 construct
T4 chain: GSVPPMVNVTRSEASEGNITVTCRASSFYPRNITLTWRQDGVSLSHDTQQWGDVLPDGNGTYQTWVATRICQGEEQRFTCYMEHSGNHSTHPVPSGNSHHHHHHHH

T5: MICA*008 on MEL-JUSO cells (human, UniProt Q29983 24-317)
T5 chain: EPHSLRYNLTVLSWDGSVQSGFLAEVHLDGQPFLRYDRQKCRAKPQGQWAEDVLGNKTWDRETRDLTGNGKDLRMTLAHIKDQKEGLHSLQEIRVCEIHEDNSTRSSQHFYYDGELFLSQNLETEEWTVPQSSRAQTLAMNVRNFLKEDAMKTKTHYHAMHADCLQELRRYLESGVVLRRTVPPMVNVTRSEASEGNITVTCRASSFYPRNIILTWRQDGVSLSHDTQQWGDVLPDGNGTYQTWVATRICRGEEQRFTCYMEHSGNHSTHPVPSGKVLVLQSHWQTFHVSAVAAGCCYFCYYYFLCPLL

B1: 1D5v6 (antibody, IgG1, V domains shown)
VH: EVQLVQSGAEVKKPGASVKVSCKASGYAFTSQNIYWVRQAPGQGLEWMGYIEPYNVVPMYNPKFKGRVTMTTDTSTSTAYMELRSLRSDDTAVYYCARSGSSNFDYWGQGTLVTVSS
VL: EIVLTQSPDFQSVTPKEKVTITCSASSSISSHYLHWYQQKPDQSPKLLIKRTSNLASGVPSRFSGSGSGTDFTLTINSLEAEDAATYYCQQGSSLPLTFGQGTKVEIK
notes: humanized variant of 1D5
B2: 1D5v11 (antibody, IgG1, V domains shown)
VH: B1 VH with V2I, M48I, V68A, M70L, T72V, T74K, M81L, R84S, D89E
VL: DIQLTQSPSSLSASVGDRVTITCSASSSISSHYLHWYQQKPGKSPKLLIYRTSNLASGVPSRFSGSGSGTDYTLTISSLQPEDFATYYCQQGSSLPLTFGQGTKVEIK
notes: humanized variant of 1D5
B3: 1D5v17 (antibody, IgG1, V domains shown)
VH: B1 VH with V2I, M48I, V68A, M70L, T72V, T74K, M81L, R84S, D89E
VL: B2 VL with L4M
notes: humanized variant of 1D5
B4: 1D5v12 (antibody, IgG1, V domains shown)
VH: B1 VH with M48I, M70I, T72R, M81L, R84S, D89E
VL: B2 VL
notes: humanized variant of 1D5
B5: 1D5v7 (antibody, IgG1, V domains shown)
VH: B1 VH with V2I, M48I, V68A, M70L, T72V, T74K, M81L, R84S, D89E
VL: B1 VL
notes: humanized variant of 1D5
B6: 1D5v13 (antibody, IgG1, V domains shown)
VH: B1 VH with V2I, M48I, V68A, M70L, T72V, T74K
VL: B2 VL with L4M, S44A, Y72F
notes: humanized variant of 1D5
B7: 1D5v18 (antibody, IgG1, V domains shown)
VH: B1 VH with V2I, M48I, V68A, M70L, T72V, T74K, M81L, R84S, D89E
VL: B2 VL with Y72F
notes: humanized variant of 1D5
B8: 1D5v8 (antibody, IgG1, V domains shown)
VH: B1 VH with M48I, M70I, T72R, M81L, R84S, D89E
VL: B1 VL
notes: humanized variant of 1D5
B9: 1D5v21 (antibody, IgG1, V domains shown)
VH: B1 VH with V2I, M48I, V68A, M70I, T72V, T74K, M81L, R84S, D89E
VL: B2 VL
notes: humanized variant of 1D5
B10: 1D5v16 (antibody, IgG1, V domains shown)
VH: B1 VH with M48I, M70I, T72R, M81L, R84S, D89E
VL: B2 VL with L4M, S44A, Y72F
notes: humanized variant of 1D5
B11: 1D5v10 (antibody, IgG1, V domains shown)
VH: B1 VH
VL: B2 VL
notes: humanized variant of 1D5
B12: 1D5v23 (antibody, IgG1, V domains shown)
VH: B1 VH with V2I, M48I, V68A, M70L, T72V, M81L, R84S, D89E
VL: B2 VL
notes: humanized variant of 1D5
B13: 1D5v9 (antibody, IgG1, V domains shown)
VH: B1 VH with V2I, M48I, V68A, M70L, T72V, T74K
VL: B2 VL
notes: humanized variant of 1D5
B14: 1D5v19 (antibody, IgG1, V domains shown)
VH: B1 VH with M48I, V68A, M70L, T72V, T74K, M81L, R84S, D89E
VL: B2 VL
notes: humanized variant of 1D5
B15: 1D5v15 (antibody, IgG1, V domains shown)
VH: B1 VH with V2I, M48I, V68A, M70L, T72V, T74K, M81L, R84S, D89E
VL: B2 VL with L4M, S44A, Y72F
notes: humanized variant of 1D5
B16: 1D5v22 (antibody, IgG1, V domains shown)
VH: B1 VH with V2I, M48I, V68A, M70L, T72R, T74K, M81L, R84S, D89E
VL: B2 VL
notes: humanized variant of 1D5
B17: 1D5v20 (antibody, IgG1, V domains shown)
VH: B1 VH with V2I, M48I, M70L, T72V, T74K, M81L, R84S, D89E
VL: B2 VL
notes: humanized variant of 1D5

Target: T1, huMICB*005 alpha 3-his
Experiment: SPR, Biacore 8K, antibody on Protein A chip
For % Inhibition in this document: test concentration or dose not given here.

Row | Kd [nM] | Binder
1 | 6.15 | B1
2 | 1.38 | B2
3 | 1.01 | B3
4 | 9.16 | B4
5 | 3.31 | B5
6 | 1.48 | B6
7 | 1.41 | B7
8 | 18.8 | B8
9 | 1.98 | B9
10 | 8.37 | B10
11 | 1.98 | B11
12 | 1.65 | B12
13 | 1.51 | B13
14 | 1.51 | B14
15 | 1.26 | B15
16 | 13.2 | B16
17 | 1.57 | B17

Target: T2, huMICA*002 alpha 3-his
Experiment: SPR, Biacore 8K, antibody on Protein A chip

Row | Kd [nM] | Binder
18 | 3.69 | B1
19 | 1.09 | B2
20 | 0.91 | B3
21 | 4.64 | B4
22 | 2.21 | B5
23 | 1.2 | B6
24 | 1.04 | B7
25 | 11.3 | B8
26 | 1.35 | B9
27 | 4.09 | B10
28 | 1.44 | B11
29 | 1.11 | B12
30 | 1.31 | B13
31 | 1.16 | B14
32 | 1.06 | B15
33 | 6.46 | B16
34 | 1.14 | B17

Target: T3, huMICA*008 alpha 3-his
Experiment: SPR, Biacore 8K, antibody on Protein A chip

Row | Kd [nM] | Binder
35 | 2.61 | B1
36 | 0.78 | B2
37 | 0.64 | B3
38 | 3.66 | B4
39 | 1.7 | B5
40 | 0.85 | B6
41 | 0.75 | B7
42 | 9.08 | B8
43 | 0.99 | B9
44 | 3.21 | B10
45 | 1.05 | B11
46 | 0.58 | B12
47 | 0.87 | B13
48 | 0.83 | B14
49 | 0.76 | B15
50 | 4.98 | B16
51 | 0.83 | B17

Target: T4, huMICA*004 alpha 3-his
Experiment: SPR, Biacore 8K, antibody on Protein A chip

Row | Kd [nM] | Binder
52 | 2.91 | B1
53 | 0.83 | B2
54 | 0.68 | B3
55 | 3.91 | B4
56 | 1.67 | B5
57 | 0.91 | B6
58 | 0.79 | B7
59 | 9.41 | B8
60 | 1.08 | B9
61 | 3.42 | B10
62 | 1.08 | B11
63 | 0.9 | B12
64 | 0.95 | B13
65 | 0.88 | B14
66 | 0.81 | B15
67 | 5.45 | B16
68 | 0.88 | B17

Target: MICA*004 on HCC1534 cells (human, UniProt Q29983 24-383)
Experiment: cell-based or functional assay

Row | % Inhibition [%] | Binder
69 | 47 | B1
70 | 52 | B2
71 | 52 | B3
72 | 50 | B4
73 | 48 | B5
74 | 49 | B6
75 | 47 | B7
76 | 42 | B8
77 | 55 | B9
78 | 50 | B10
79 | 62 | B11
80 | 50 | B12
81 | 53 | B13
82 | 44 | B14
83 | 45 | B15
84 | 46 | B16
85 | 46 | B17

Target: MICB*005 on HCC1534 cells (human)
Experiment: cell-based or functional assay

Row | % Inhibition [%] | Binder
86 | 37 | B1
87 | 36 | B2
88 | 50 | B3
89 | 27 | B4
90 | 42 | B5
91 | 43 | B6
92 | 41 | B7
93 | 35 | B8
94 | 25 | B9
95 | 51 | B10
96 | 43 | B11
97 | 38 | B12
98 | 41 | B13
99 | 40 | B14
100 | 39 | B15
101 | 34 | B16
102 | 39 | B17

Target: T5, MICA*008 on MEL-JUSO cells
Experiment: cell-based or functional assay

Row | % Inhibition [%] | Binder
103 | 51 | B1
104 | 56 | B2
105 | 68 | B3
106 | 44 | B4
107 | 51 | B5
108 | 51 | B6
109 | 64 | B7
110 | 52 | B8
111 | 62 | B9
112 | 51 | B10
113 | 58 | B11
114 | 63 | B12
115 | 49 | B13
116 | 57 | B14
117 | 48 | B15
118 | 57 | B16
119 | 56 | B17
